# Data: PMC8509923
# Target: T1, Upc2A DNA-binding domain (Candida glabrata) (UniProt Q6FX18)
# T1 sequence: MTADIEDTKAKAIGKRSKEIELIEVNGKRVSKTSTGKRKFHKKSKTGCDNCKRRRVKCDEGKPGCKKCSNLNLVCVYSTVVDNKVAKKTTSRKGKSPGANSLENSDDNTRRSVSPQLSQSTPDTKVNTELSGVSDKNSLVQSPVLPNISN
# Experiment: DNase I footprinting
# Conditions: 5' amino-MC6 on reverse strand
sequence,measurement,value
ACTGCCACACAGAAGAGCAGCGGGACTACCGGAACACGATTAGCCTTCGTTTACATGTTGGCAAACCCAGGACATAGATCAGAGTGTATTACATTAGCACAGACCGGCCGTGGGTAAGTTTTTCCTGACTAAAATGGCCGCAGCTGCAAGTCCACGGAATATTTCCCTTTTTTGCTCGATAAGTTGTAC (double strand) [CDR1 promoter DNase I probe],binding,binds
